Common to all, as to details: protein: recombinant; tags: GFP-GST (N-term); label: Atto647N 5' on strand 1; blunt
Data set [1] addresses T1, Rad54 S816A/S817A (Saccharomyces cerevisiae, UniProt P32863 1-898, S816A;S817A).
T1 sequence: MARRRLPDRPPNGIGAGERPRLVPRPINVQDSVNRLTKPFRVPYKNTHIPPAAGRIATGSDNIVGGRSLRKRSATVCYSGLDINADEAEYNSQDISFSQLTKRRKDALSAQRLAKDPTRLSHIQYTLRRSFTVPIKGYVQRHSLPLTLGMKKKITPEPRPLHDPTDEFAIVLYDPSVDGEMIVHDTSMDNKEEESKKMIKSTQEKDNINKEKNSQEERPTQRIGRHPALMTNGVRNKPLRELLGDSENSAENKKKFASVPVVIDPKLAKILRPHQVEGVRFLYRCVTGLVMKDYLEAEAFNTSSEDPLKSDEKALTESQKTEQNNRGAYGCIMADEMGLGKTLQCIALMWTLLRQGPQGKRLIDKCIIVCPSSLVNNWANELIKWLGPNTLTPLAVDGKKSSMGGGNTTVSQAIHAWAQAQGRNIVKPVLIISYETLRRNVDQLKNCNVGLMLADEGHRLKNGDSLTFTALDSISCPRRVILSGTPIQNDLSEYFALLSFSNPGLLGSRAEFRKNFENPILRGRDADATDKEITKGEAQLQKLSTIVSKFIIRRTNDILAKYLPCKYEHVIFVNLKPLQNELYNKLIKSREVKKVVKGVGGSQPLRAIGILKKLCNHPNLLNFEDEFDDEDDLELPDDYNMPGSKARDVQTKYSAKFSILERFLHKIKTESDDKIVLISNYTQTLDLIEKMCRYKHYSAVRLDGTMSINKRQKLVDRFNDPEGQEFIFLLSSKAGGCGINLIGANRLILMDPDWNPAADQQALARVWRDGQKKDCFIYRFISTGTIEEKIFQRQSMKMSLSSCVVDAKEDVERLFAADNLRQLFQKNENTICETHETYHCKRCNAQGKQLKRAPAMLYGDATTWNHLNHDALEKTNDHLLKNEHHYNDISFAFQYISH
In words: EMSA; 3 mM Mg2+; Kd slightly above WT, not significant; value only in figure; EMSA: 35 mM Tris-Cl pH 7.5, 3 mM MgCl2, 50 mM KCl, 1 mM DTT, 10% glycerol, 10 nM DNA, 30 C, 5 min, 8% native PAGE in 0.5x TBE; DNA curtains: HR buffer (composition not given), 10 nM GFP-Rad54, flow 0.2 mL/min. In general terms: In EMSA bound probe runs differently from free probe, usually more slowly.

Data set [2] concerns the target T2, Rad54 D525S/D527S/S816D/S817D (Saccharomyces cerevisiae, UniProt P32863 1-898, D525S;D527S;S816D;S817D).
T2 sequence: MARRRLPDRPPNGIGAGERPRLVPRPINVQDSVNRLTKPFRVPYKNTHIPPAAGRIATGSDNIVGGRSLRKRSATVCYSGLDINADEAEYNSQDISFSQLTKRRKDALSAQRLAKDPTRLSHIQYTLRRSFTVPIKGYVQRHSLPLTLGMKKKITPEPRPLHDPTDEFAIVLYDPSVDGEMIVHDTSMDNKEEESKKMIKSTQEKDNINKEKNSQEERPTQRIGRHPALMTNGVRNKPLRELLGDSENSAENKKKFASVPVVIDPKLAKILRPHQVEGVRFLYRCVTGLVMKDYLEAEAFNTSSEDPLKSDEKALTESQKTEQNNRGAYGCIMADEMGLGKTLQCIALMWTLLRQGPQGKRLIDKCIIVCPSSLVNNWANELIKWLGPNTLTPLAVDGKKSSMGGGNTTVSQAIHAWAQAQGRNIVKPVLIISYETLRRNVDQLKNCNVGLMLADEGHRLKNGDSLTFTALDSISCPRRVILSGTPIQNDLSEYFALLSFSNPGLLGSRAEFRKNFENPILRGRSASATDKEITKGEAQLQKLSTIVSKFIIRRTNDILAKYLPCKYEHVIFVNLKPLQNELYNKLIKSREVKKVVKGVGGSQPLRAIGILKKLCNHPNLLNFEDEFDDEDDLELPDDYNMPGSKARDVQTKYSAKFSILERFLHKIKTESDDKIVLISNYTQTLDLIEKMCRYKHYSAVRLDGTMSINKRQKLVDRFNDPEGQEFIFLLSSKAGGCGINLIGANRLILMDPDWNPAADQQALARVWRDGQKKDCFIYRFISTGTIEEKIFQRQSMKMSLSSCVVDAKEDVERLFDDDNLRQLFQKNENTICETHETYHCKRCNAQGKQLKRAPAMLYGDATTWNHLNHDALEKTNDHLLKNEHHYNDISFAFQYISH
As to the kind of experiment: EMSA; apparent Kd; Hill fit; 3 mM Mg2+; EMSA: 35 mM Tris-Cl pH 7.5, 3 mM MgCl2, 50 mM KCl, 1 mM DTT, 10% glycerol, 10 nM DNA, 30 C, 5 min, 8% native PAGE in 0.5x TBE; DNA curtains: HR buffer (composition not given), 10 nM GFP-Rad54, flow 0.2 mL/min.

Data set [3] concerns the target T3, Rad54 S816D/S817D (Saccharomyces cerevisiae, UniProt P32863 1-898, S816D;S817D).
T3 sequence: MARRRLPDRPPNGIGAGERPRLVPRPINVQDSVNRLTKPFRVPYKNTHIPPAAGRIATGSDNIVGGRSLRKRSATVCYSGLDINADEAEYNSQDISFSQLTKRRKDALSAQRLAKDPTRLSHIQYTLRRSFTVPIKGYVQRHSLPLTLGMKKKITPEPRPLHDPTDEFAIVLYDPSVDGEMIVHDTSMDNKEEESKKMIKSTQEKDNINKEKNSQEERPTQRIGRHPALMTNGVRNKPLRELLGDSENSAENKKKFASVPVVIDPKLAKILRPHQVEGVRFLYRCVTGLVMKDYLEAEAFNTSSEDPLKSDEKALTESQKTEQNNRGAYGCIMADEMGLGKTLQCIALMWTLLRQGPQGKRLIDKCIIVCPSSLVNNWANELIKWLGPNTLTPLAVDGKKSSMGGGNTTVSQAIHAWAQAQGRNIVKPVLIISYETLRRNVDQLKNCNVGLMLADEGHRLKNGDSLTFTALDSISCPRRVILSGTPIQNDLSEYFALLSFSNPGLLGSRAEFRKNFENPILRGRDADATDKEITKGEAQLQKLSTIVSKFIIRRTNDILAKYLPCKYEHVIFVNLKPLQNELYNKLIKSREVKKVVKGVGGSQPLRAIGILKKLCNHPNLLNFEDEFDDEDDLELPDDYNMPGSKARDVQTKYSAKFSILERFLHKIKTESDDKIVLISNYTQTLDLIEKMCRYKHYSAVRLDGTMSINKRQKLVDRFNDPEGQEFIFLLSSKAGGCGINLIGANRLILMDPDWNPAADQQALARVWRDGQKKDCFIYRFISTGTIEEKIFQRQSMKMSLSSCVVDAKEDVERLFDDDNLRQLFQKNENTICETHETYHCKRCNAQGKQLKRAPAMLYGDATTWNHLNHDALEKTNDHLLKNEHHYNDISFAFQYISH
In words: EMSA; apparent Kd; Hill fit; 3 mM Mg2+; p = 0.008 vs WT; EMSA: 35 mM Tris-Cl pH 7.5, 3 mM MgCl2, 50 mM KCl, 1 mM DTT, 10% glycerol, 10 nM DNA, 30 C, 5 min, 8% native PAGE in 0.5x TBE; DNA curtains: HR buffer (composition not given), 10 nM GFP-Rad54, flow 0.2 mL/min.

B1: 90 bp dsDNA (90-mer) (dsDNA)
DNA 1: GATGTTCTGCTGGATATGCACTTTTCCGGGCTGACGTACACCGTGCTCAGCCTGTTTTTCAGCGATCCGGATATGCATCCGCTGGATTTC
DNA 2: GAAATCCAGCGGATGCATATCCGGATCGCTGAAAAACAGGCTGAGCACGGTGTACGTCAGCCCGGAAAAGTGCATATCCAGCAGAACATC
As for B1, the binding result in data set [1] is “binds”. Further, the Kd is around 18 nM in data set [2] and 41 nM in data set [3].

(Values after paper PMC13138755, “Potential Rad54 separation of function mutation highlights unique roles during homologous recombination”.)
